According to patent US20230242645A1:
pKd: −log10 of the molar value.

Columns and labels:
[1] = molecular target: human PD-L1 on CHO-K1 cells (WBP315.CHO-K1.hPro1.C11) (human) (UniProt Q9NZQ7); test: FACS on human PD-L1 expressing CHO-K1 cells, FITC anti-human IgG
[2] = molecular target: mouse PD-L1 on 293F cells (WBP315.293F.mPro1.C1) (mouse) (UniProt Q9EP73); test: FACS on mouse PD-L1 expressing 293F cells, FITC anti-human IgG
[3] = molecular target: cynomolgus monkey PD-L1 on 293F cells (WBP315.293F.cPro1.2A) (cynomolgus monkey) (UniProt G7PSE7); test: FACS on cynomolgus PD-L1 expressing 293F cells, FITC anti-human IgG
[4] = molecular target: human PD-L1 extracellular domain, his tag (W315-hPro1.ECD.his) (human) (UniProt Q9NZQ7); test: SPR (Biacore T200), antibody captured on anti-human Fc, antigen as analyte, 25 °C
human PD-L1 extracellular domain, his tag (W315-hPro1.ECD.his) (human), sequence (Q9NZQ7 19-238): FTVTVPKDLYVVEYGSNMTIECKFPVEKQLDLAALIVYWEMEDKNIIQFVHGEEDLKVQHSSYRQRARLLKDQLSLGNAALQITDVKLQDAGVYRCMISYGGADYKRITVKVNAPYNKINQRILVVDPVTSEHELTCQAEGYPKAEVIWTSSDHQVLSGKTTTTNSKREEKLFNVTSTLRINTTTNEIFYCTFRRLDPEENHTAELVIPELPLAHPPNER

human PD-L1 on CHO-K1 cells (WBP315.CHO-K1.hPro1.C11) (human), sequence (Q9NZQ7 19-290): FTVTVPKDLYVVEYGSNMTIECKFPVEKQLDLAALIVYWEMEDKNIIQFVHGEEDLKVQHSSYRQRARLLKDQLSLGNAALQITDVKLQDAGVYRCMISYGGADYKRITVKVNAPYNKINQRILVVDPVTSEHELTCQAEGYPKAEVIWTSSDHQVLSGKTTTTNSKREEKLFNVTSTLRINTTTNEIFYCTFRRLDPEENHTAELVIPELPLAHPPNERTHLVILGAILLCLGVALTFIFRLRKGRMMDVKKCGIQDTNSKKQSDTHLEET
mouse PD-L1 on 293F cells (WBP315.293F.mPro1.C1) (mouse), sequence (Q9EP73 19-290): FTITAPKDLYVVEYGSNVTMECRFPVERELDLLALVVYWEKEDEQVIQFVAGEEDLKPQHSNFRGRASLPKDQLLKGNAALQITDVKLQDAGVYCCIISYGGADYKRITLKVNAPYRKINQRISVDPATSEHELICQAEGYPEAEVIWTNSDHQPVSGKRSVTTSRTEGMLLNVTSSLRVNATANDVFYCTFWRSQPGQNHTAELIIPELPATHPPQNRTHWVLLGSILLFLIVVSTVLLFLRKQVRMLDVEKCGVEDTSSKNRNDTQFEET
cynomolgus monkey PD-L1 on 293F cells (WBP315.293F.cPro1.2A) (cynomolgus monkey), sequence (G7PSE7 entry or part of it limits assumed): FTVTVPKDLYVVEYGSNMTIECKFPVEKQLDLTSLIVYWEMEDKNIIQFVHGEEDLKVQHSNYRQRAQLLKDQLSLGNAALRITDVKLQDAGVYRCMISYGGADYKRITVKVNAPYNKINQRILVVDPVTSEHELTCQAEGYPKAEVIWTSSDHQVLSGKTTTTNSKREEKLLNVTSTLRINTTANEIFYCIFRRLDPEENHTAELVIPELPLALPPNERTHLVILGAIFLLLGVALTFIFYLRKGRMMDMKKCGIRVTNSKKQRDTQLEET

**Q.** Which results are given for “W315-BMK8.uIgG1K(RKNA) (Atezolizumab) (antibody)”?
**A.** EC50 (read off the curve) [1]: 0.1 nM; EC50 (read off the curve) [2]: 2 nM; EC50 (read off the curve) [3]: 2 nM; pKd [4]: 10.22
